Among the data in publication PMC3744435 are stoichiometry N (copies per triplex) values, retold here.

The assay concerns the target capsid triplex (heterotrimer of two mCP and one mC-BP) (human cytomegalovirus (HCMV) strain AD169) (UniProt P16728). Put plainly: cryo-EM structure.

Regarding “tegument protein pp150 (from UniProt P08318 1-1048) (natural protein)”, the stoichiometry N (copies per triplex) came out at 3.
